Reference: patent US20070271623A1 (UNIVERSITY OF COPENHAGEN, published 2007)

Experiments:
[1] = target: T1, mutant full-length MKS1-S30A (histidine-tagged)
T1 chain: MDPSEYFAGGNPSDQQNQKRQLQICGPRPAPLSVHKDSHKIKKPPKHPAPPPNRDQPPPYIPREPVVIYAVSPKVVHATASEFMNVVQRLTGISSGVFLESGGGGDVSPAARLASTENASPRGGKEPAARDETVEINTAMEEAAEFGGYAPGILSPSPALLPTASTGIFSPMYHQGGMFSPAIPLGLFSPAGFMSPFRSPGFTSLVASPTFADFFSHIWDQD

[2] = target: T2, mutant MKS1-S30A C3-truncation (histidine-tagged)
T2 chain: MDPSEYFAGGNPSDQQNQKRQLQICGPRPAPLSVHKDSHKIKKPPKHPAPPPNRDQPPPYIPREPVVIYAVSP

B1: HA (influenza hemagglutin antigen)-tagged MPK4 (protein)
chain: YPYDVPDYAYPYDVPDYAYPYDVPDYAYPYDVPDYAYPYDVPDYAYPYDVPDYAMSAESCFGSSGDQSSSKGVATHGGSYVQYNVYGNLFEVSRKYVPPLRPIGRGAYGIVCAATNSETGEEVAIKKIGNAFDNIIDAKRTLREIKLLKHMDHENVIAVKDIIKPPQRENFNDVYIVYELMDTDLHQIIRSNQPLTDDHCRFFLYQLLRGLKYVHSANVLHRDLKPSNLLLNANCDLKLGDFGLARTKSETDFMTEYVVTRWYRAPELLLNCSEYTAAIDIWSVGCILGETMTREPLFPGKDYVHQLRLITELIGSPDDSSLGFLRSDNARRYVRQLPQYPRQNFAARFPNMSAGAVDLLEKMLVFDPSRRITVDEALCHPYLAPLHDINEEPVCVRPFNFDFEQPTLTEENIKELIYRETVKFNPQDSV
Q: For B1, which “in vitro phosphorylation assay (32P-γ-ATP, SDS-PAGE, phosphorimager)” value [1] is on record?
A: the mutant full-length MKS1 (S30A) was phosphorylated

Q: And the “in vitro phosphorylation assay (32P-γ-ATP, SDS-PAGE, phosphorimager)” value [2]?
A: the mutant C3 truncated MKS1 (C3-S30A) was not phosphorylated by HA-tagged MPK4
